Results from patent US20230071609A1 (Genentech, published 2023).

T1: endogenous human APOL1 (wild-type immortalized podocytes; also JHH-1 cells, kidney and liver tissue) (human, UniProt O14791 28-398)
T1 construct: whole, on cells; Cell or tissue and permeabilization are told under assay; also called podocyte APOL1; endogenous APOL1
T1 sequence (looked up): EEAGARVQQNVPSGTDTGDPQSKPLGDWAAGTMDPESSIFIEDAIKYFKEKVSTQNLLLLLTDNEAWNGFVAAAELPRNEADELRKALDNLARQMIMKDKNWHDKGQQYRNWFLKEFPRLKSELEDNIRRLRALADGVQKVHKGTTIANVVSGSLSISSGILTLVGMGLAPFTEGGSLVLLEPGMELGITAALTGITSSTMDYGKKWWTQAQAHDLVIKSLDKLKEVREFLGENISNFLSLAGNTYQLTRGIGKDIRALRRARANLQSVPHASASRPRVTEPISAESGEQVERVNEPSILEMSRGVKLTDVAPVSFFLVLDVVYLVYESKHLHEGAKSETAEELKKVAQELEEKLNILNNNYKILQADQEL

T2: APOL6-myc-FLAG (human, UniProt Q9BWW8 1-343)
T2 construct: whole, on cells; In fixed, permeabilized transfected COS cells; untagged APOL6 in the western blots; not shown: C-terminal myc-FLAG tag
T2 sequence (looked up): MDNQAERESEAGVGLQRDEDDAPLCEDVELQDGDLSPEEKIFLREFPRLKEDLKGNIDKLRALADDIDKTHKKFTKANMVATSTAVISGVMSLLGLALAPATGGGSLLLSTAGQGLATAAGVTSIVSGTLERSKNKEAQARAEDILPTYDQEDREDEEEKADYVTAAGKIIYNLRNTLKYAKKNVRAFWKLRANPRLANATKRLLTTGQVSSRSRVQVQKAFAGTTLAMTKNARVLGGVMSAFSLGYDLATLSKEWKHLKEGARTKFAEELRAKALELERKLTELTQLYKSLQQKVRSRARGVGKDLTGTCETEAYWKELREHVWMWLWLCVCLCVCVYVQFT


What was measured:
[1] = biological target: T1, endogenous human APOL1 (wild-type …); experiment: flow cytometry, live WT and iAPOL1-G0 podocytes
Experimental: Cells were harvested with 5 mM EDTA in PBS, washed once with growth media and twice with PBS. Approximately 0.5×10⁶/m1 of cells resuspended in PBS were incubated with anti-APOL1 antibodies for 1 h on ice. Following two PBS washes, 2 μg/ml of Alexa488 anti-mouse or anti-rabbit (Invitrogen A11029 and A21206, respectively) was used for 1 h on ice for detection. Cells were washed twice in PBS and resuspended in PBS with 1 μg/ml propidium iodide. Signals were read in a FACSCalibur3 (Becton Dickinson), with the exception of FIG. 8A and FIG. 14, which used a FACSCelesta, and data was analyzed using FlowJo v8.4.5. Mean fluorescence intensities were plotted in PRISM v7 after subtraction of secondary antibody alone background. For low pH experiments, cells were incubated with the antibodies in the presence of PBS pH 7.0 or PBS pH 5.5 for an hour on ice and detected with secondary antibodies at neutral pH.
More importantly, there were also differential APOL1 accessibilities between serum APOL1 and kidney disease-relevant podocytes (FIG. 18B). Some antibodies bound surface APOL1 in WT and iAPOL1 podocytes (FIG. 6A, 6B), but not circulating APOL1 (as judged by lack of trypanolytic blockade, FIG. 6C) and vice versa. […] Conversely, 3.3B6 and 4.17A5 were among the top trypanolytic blockers, but recognized the podocyte surface relatively weakly. […]

APOL6-myc-FLAG = biological target: T2, APOL6-myc-FLAG; experiment: immunofluorescence on transfected COS cells; grade (also no cross-reaction by western blot)
Excerpt: COS cells were transfected as in FIG. 31A except APOL1 and APOL2 were also C-terminally myc-FLAG tagged. Overlays of APOL with epitope tags: either mouse anti-FLAG-M2 or mouse anti-myc 9E10 for anti-APOL1 rabmabs; or rabbit anti-Myc 71D10 in conjunction with mouse anti-APOL1. Signals indicate the two antibodies overlap (i.e. anti-APOL1 cross-reacts with that APOL); signals (epitope tag only) indicate no cross-reactivity. Alexa647 anti-rabbit or mouse were used for the tags to rule out the possibility that any colocalization was a bleed-through artifact. Sparsely transfected areas were imaged to permit evaluation of background staining in adjacent untransfected cells—DAPI nuclear staining identifies both untransfected and transfected cell nuclei. […] Note that none of the antibodies cross-reacted with the more distantly related APOL6. *, APOL2-myc-FLAG is presumably misfolded, since it is not as cross-reactive as untagged APOL2 (compare FIG. 31A) with several antibodies. Commercial antibodies are Sigma HPA018885, Epitomics EPR2907 (2) (Epito) and Proteintech 11486-2-AP (Ptech).
Cells were plated on LabTekII (Nalge Nunc 154534) slides and fixed at 70-100% confluency. For mAb screening, cells were fixed/permeabilized for 5 min in −20° C. methanol (EMD MX0485-6). […]

binding result (APOL6-myc-FLAG)	Binder	binding result [1]
–	antibody 4.17A5 (antibody, V domains shown, Mouse mAb (Method #4), cloned as murine IgG2a LALAPG; also called mAb 4.17A5) VH: QVQLQQSGPELLKPGASVKISCKGSGYAFSNSWINWVKLRPGQGLEWIGRIYPGDGDTKYNGKFKGKATLTADKSSSTAHMQLRSLTSVDSAVYFCARFPFGKYEGPGAMDYWGQGTSVTVSS VL: DIQMTQTTSSLSASLGDRVTISCRASQDISSYLNWYQQKPDGTIKLLIYYTSRLHSGVPSRFSGSGSGTDFSLTISNLEQEDIATYFCQQGNTLPYTFGGGTKLEIKR	binds
no binding (tested: 1 µg/ml)	antibody 4.12E5 (antibody, V domains shown, Mouse mAb, cloned as murine IgG2a LALAPG) VH: EVQLQQSGPELVKTGASVKISCKASGYSFTGYFMHWVKQSHGKSLEWIGYISCYNGASVYNQRFKGKATFTIDTSSSTAYMQFNSLTSEDSAVYYCARDVLRYPRYAVDYWGQGTSVTVSS VL: not shown	–
